Test results from patent US20220289828A1.

Legend:
[1] = target: B1 clade EV-D68 isolate (Enterovirus D68); assay: cell-based or functional assay
[2] = target: Enterovirus D68 US/MO/14-18947 virus particle (B1 clade) (Enterovirus D68); assay: cryo-EM of Fab with B1 clade virus
[3] = target: Enterovirus D68 US/MO/14-18947 virus particle (B1 clade) (Enterovirus D68); assay: cryo-EM structure

Row | Binder | IC50 in a CCID50 neutralization assay [1] [ng/mL] | copies of Fab bound to the virus particle [2] [copies] | share of the masked surface area from the heavy chain [3] [%] | viral surface area masked by each Fab [3] [Å^2]
1 | mAb EV68-159 (antibody, V domains shown) VH: EVQLVESGGGLVKPGGSLRLSCAASGFTFSTYIMTWVRQAPGRGLEWVSSISTSSVYTFYADSLKGRFTISRDNAKNSVYLQMNSLRADDTAVYYCAREEGFRAYNLYWGQGTLVTVSS VL: QSVLTQPPSASGTPGQRVTISCSGSSSNIEYNYVYWYQKFPGTAPKLLIYKNNQRPSGVPDRFSGSKSGTSASLAISGLRSEDEGDYYCAAWDDILSGVVFGGGTKLTVL | 0.32 | – | – | –
2 | Fab EV68-159 (Fab, V domains shown) VH: EVQLVESGGGLVKPGGSLRLSCAASGFTFSTYIMTWVRQAPGRGLEWVSSISTSSVYTFYADSLKGRFTISRDNAKNSVYLQMNSLRADDTAVYYCAREEGFRAYNLYWGQGTLVTVSS VL: QSVLTQPPSASGTPGQRVTISCSGSSSNIEYNYVYWYQKFPGTAPKLLIYKNNQRPSGVPDRFSGSKSGTSASLAISGLRSEDEGDYYCAAWDDILSGVVFGGGTKLTVL | – | 60 | 77 | 990
3 | Fab EV68-228 (Fab, V domains shown) VH: QVQLQESGPGLVKPSETLSLTCTVSGYLISNGYYWGWIRQSPGKGLEWIGSIYYTRDTYYNWSLKSRITISVDTSKKQFSLKLYSVTAADTAVYYCVRHEGSCNDGSCYGSFVDNWGQGTLVTVSS VL: DIQMTQSPSSVSASVGDRVTLTCRASQDISSWLAWYQQKPGKAPKLLIYAASSLQSGVPSRFSGSGSGTHFTLTISSLQPEDFATYFCQQADSFITFGGGTKVEIK | – | 60 | 84 | 1170
